# Measurements reported in patent US20040115215A1.
# What was measured:
# [1] = target: Crotalus durissus terrificus venom; experiment: ELISA, C.d.t. venom-coated; undiluted
# [2] = target: Crotalus durissus terrificus venom; experiment: ELISA, C.d.t. venom-coated; dilution 1:5
# [3] = target: Crotalus durissus terrificus venom; experiment: ELISA, C.d.t. venom-coated; dilution 1:25
# [4] = target: Crotalus durissus terrificus venom; experiment: ELISA, C.d.t. venom-coated; dilution 1:25; remark: listed apart in the source
# [5] = target: Crotalus durissus terrificus venom; experiment: ELISA, C.d.t. venom-coated; dilution 1:500
# [6] = target: Crotalus durissus terrificus venom; experiment: ELISA, C.d.t. venom-coated; dilution 1:125
# [7] = target: Crotalus durissus terrificus venom; experiment: ELISA, C.d.t. venom-coated; dilution 1:625
# [8] = target: Crotalus durissus terrificus venom; experiment: ELISA, C.d.t. venom-coated; dilution 1:125; remark: listed apart in the source
# [9] = target: Crotalus durissus terrificus venom; experiment: ELISA, C.d.t. venom-coated; dilution 1:625; remark: listed apart in the source
# [10] = target: Crotalus durissus terrificus venom; experiment: ELISA, C.d.t. venom-coated; dilution 1:3125
# [11] = target: Crotalus durissus terrificus venom; experiment: ELISA, C.d.t. venom-coated; dilution 1:3125; remark: listed apart in the source
# [12] = target: Crotalus durissus terrificus venom; experiment: ELISA, C.d.t. venom-coated; dilution 1:2,500
# [13] = target: Crotalus durissus terrificus venom; experiment: ELISA, C.d.t. venom-coated; dilution 1:12,500
# [14] = target: Crotalus durissus terrificus venom; experiment: ELISA, C.d.t. venom-coated; dilution 1:62,500
# [15] = target: Crotalus durissus terrificus venom; experiment: ELISA, C.d.t. venom-coated; dilution 1:312,500
substance,measurement,setting,value
preimmune IgY (from unimmunized hens or supermarket eggs) (antibody),absorbance,[1],0.003 OD
same,absorbance,[2],< 0 OD
same,absorbance,[3],0.016 OD
same,absorbance,[4],0 OD
same,absorbance (412 nm filter),[5],0.005 OD
same,absorbance,[6],< 0 OD
same,absorbance,[7],< 0 OD
same,absorbance,[8],0.003 OD
same,absorbance,[9],0 OD
same,absorbance,[10],< 0 OD
same,absorbance,[11],0.002 OD
same,absorbance (412 nm filter),[12],0.004 OD
same,absorbance (412 nm filter),[13],0.001 OD
same,absorbance (412 nm filter),[14],0.001 OD
same,absorbance (412 nm filter),[15],0.01 OD
